According to the RNAGym collection of RNA variant scans (doi:10.1073/pnas.2313332121):

B1: TPR t1 (parent)
chain: GACCAAUCUGCCCUCAGAGCUCGAGAACAUCUUCGGAUGCAGAGGAGGCAGGCUUCGGUGGCGCGAUAGCGCCAACGUCCUCAACCUCCAAUGCAUCCCACCACAUGAUGAUGCCUGAAGAGCCUUGGUUUUUUG

Variants of: B1
Experiment: polymerase ribozyme fitness, log enrichment relative to wild type (log ratio); higher = more active; in vitro selection for triplet polymerase activity
In short: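 Input and output libraries were sequenced on Illumina after a single in vitro selection round, run in triplicate on PCR-built, transcribed mutant libraries of each subunit of a heterodimeric triplet polymerase ribozyme. Selection annealed libraries to a biotinylated primer, the partner subunit and triplets, incubated them frozen at −7 °C, then gel-excised extended constructs for streptavidin-bead capture and RT-PCR. Genotypes with ≥10 input reads and ≥1 read per output were kept. Fitness is the logarithm, taken in base 2, of genotype enrichment divided by wild-type enrichment, using inverse-variance-weighted replicate averages.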

Row | Variant | polymerase ribozyme fitness (log ratio)
1 | G61U C97A | -3.26
2 | G10U C13U G60C G107A U112C G127U | -4.55
3 | A24G G128A U130G | -4.18
4 | C11U C80U G113C | -3.93
5 | C8A C40A A43C U87G | -2.23
6 | A74U U112A G128A | -1.59
7 | C3G C49A G57U C64U G120U G128U | -1.81
8 | A26G U130A | -3.31
9 | G10U C11U | 0.0495
10 | C3U A119G | 0.367
11 | A18C G36U | -4.02
12 | C15U C88A A91C | -2.47
13 | A118U | 0.282
14 | C49A A90C A103U C114A | -7.25
15 | C114A U116G | -3.78
16 | U38G G52U | -2.27
17 | C101A C115U | -2.63
18 | A16C C49U G60U U78A | -3.42
19 | G36C C88A | -2.1
20 | G51C C85G | -4.34
21 | U55C C56A A84C A111G U129A | -2.42
22 | C8A U67C | -3.31
23 | U130G U131A | -0.66
24 | A41C C64U U78C U106A | -1.57

Row | Variant | polymerase ribozyme fitness (log ratio)
25 | C70U C94A | -1.13
26 | C12G C13A G45C C56U | -1.27
27 | A18C G117C | -4.33
28 | G17A A37U A50C | -4.99
29 | A27U U55G C56A G61A C62G U112C G120U G128A U130C | -7.21
30 | A16U A29U U30A A41C C49G A90G G120C | -6.59
31 | G48A C72A | -0.519
32 | G10U C94U C101A C104A | -3.21
33 | A74U C88G A118U | -1.31
34 | C11A C22G | -4.15
35 | G47U C53G A105G | -4.47
36 | G63A U106A | -1.29
37 | G17U G47U | -5.05
38 | U78C A84C | -0.194
39 | A29G C31G G63A A100U A121C | -7.06
40 | C72A U78C | -0.145
41 | G51U A91G | -5.12
42 | G63C G117C C123G | -2.31
43 | G58A G69A | -2.24
44 | G63A G93A | -1.38
45 | U9G G48U G93C A111C | -1.91
46 | C13U A26G G63C U81A G117C | -6.91
47 | U30G U54A U112C | -5.05
48 | C94G | -0.92

Row | Variant | polymerase ribozyme fitness (log ratio)
49 | G107A U130C | -4.85
50 | C64U U78C U96C C124U U126C U133G | -0.424
51 | G10C C34A | -3.12
52 | C8A G36U C82A | -0.55
53 | C28U G45U C114U | -4.18
54 | C13U C56G C62U A74G U96A A100C | -4.8
55 | G61A U78G G120A | 0.458
56 | G35U C56U | -4.99
57 | U78C A84G C97G | -5.87
58 | A27G G51U G61A U92A | -6.49
59 | A5C G117C | -3.15
60 | A29G A37G C88U A111C | -0.788
61 | G45U C73U C98U A111G U125A | -6.59
62 | C22G A29U G69C C89A G110U | -5.19
63 | U7G G65U | -5.58
64 | C34A G60A C72G C88U | -6.11
65 | G60U U92A | -3.34
66 | U96A U125G | -1.93
67 | G69C U78C A84C | -2.73
68 | G47A G117C | -4.01
69 | C11A A41U G45C | -3.39
70 | A26G G48A C53G C89U A91C | -4.13
71 | A29U G42C G69U A119U | -2.46
72 | G71U C124U | 1.13

Row | Variant | polymerase ribozyme fitness (log ratio)
73 | A41G G61A | -0.141
74 | G42U G135U | -1.66
75 | G122A | -0.49
76 | G58U G71A C79A A103G C115U | -7.13
77 | C31U U78C | -5.28
78 | A5U C13U A37U G44C U78G C98U | -4.45
79 | G10U C15U A91C U125A | -3.89
80 | A18U G48C C49A | -3.25
81 | C12U G60C U112G | 0.137
82 | U7G U96C | -0.0298
83 | G77C G122A U130A | -1.41
84 | A27C C28A A103U A105U U106G A111U G117U C123U | -5.3
85 | A46U G57U C94A | -2.21
86 | G44C C49A C101G U112G U131G | -4.71
87 | C40A A41U A43U G44C | -3.15
88 | G19A C72U | -3.79
89 | G10A G39U A90C U106A | -2.41
90 | A68G A84G | -3.98
91 | G48U C72U C76U A105U | -3.61
92 | U81A U106C G110A G113C C114U A119G | -5.29
93 | C73G C86U U109A | -6.23
94 | C56U C76A G93A G120C | -4.53
95 | A2C C72A G120U | -1.37
96 | A37G G44C | -0.927

Row | Variant | polymerase ribozyme fitness (log ratio)
97 | G57C C62G C104A | -5.81
98 | G44U G117U | -3.54
99 | U30A C104U A121C | -4.08
100 | C49U C82U | -0.598
101 | C8A A27G C56G U59G G113U | -4.68
102 | C31U G44C G69U C115U U130A | -4.82
103 | C12U G48A C115G U129A G135U | -2.25
104 | C28G A83G U130C | -4.34
105 | G71U C82A | -1.91
106 | C8G G44A G63U U125G | -2.03
107 | G61C G93U | -2.81
108 | C85G C88U | -0.339
109 | C40A G44A G45U A50C G93A | -5.29
110 | C15U A27G U32A A46C C82A G117U | -5.76
111 | C12G C49A G63U C72U C89A | -3.61
112 | U109A | -5.11
113 | U33A G51A C72U U112A | -6.67
114 | A2C A50U | -2.44
115 | G36U C123U | 0.205
116 | C79U A121C | 1.81
117 | C34A U38A G71U C101U | -5.16
118 | C22U A74C C79U A121U | -2.29
119 | A95G C123G | 1.72
120 | C12A G19U G42U U92A U112C U129G | -3.59

Row | Variant | polymerase ribozyme fitness (log ratio)
121 | C94U G107A | -4.87
122 | G47U C70U C88U | -3.39
123 | A50U G58A C88U | -2.22
124 | G51U C85U | -4.37
125 | C15U C28A C72U C76G A121C | -3.19
126 | U9G G39A A121U U131C | 2.2
127 | A41U G44A | -2.2
128 | U54A C88G C89U C115A | -1.42
129 | G10U C12U C31U C72U C85A G122A | -5.23
130 | C73U G117A | 0.149
131 | C62A | -0.872
132 | G57A U81A C104U | -1.98
133 | C40G U55G U78G | -2.04
134 | C13U C28G C34G C49A C76A A100C U109A C123G | -6.13
135 | G60C A74C | -4.67
136 | A37U G44A | -2.19
137 | G61C G113U | -4.1
138 | U32C G60C A75C C79G | -1.89
139 | A6U G44A G63C G113U | -5.44
140 | C8G G63A G127C | -1.12
141 | A18U G39A U54A C70A C124U G127A | -4.66
142 | G47C C62G G120C G128A | -5.53
143 | C11G G63A A111G | -0.361
144 | C13G G17A C115U | -1.42

Row | Variant | polymerase ribozyme fitness (log ratio)
145 | U9A G58C G71A U112A G113C G128U | -3
146 | C13A C70G C98U G120A | -2.39
147 | C11U C34G C53A G71A | -6.35
148 | A29G G69C G120A | -2.54
149 | G47U C85U | -1.98
150 | C56G C86A | -1.6
151 | A2C C12G C115A U125A | -2.05
152 | C3U G93C | -1.09
153 | A41U A90C C124G | 0.559
154 | C8G U32C A66U | -0.651
155 | A16G G60U G107U C124G | -4.06
156 | A37U C88U C101G C115G | -3.98
157 | U33G G69U | -2.25
158 | G47A C72U | -0.456
159 | A46U C82A | -1.42
160 | A43C C49U G63U A66C | -5.38
161 | C31U G63A | -5.33
162 | C11G G19C G23A G63A A83C C114U C115U C123G | -7.99
163 | C28G C56A | -1.87
164 | G45U U112A G128C | -2.89
165 | U9G A27U G39U A46U | -4
166 | A83G C86G G127U U132C | -2.25
167 | G63U C89U | -1.85
